Test results published in patent US10064928B2, “Peptides and combination of peptides for use in immunotherapy against CLL and other cancers” (IMMATICS BIOTECHNOLOGIES GMBH, priority 2015, dated 2018).

Molecular target: HLA-A*02:01 (Homo sapiens, UniProt P04439, D140Y/D185E/D98H/E176V/E277Q/G131W/G231S/I119V/I121R/I166T/I218V/L300P/L318F/N151K/N90K/P208A/P217A/Q86G/Q94H/R138H/R169H/T345S)
Assay: MHC binding assay (UV-ligand exchange, beta2m ELISA)
Conditions: binding of HLA-class I restricted peptides to HLA-A*02:01, β2m ELISA
Outline: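 Exchange yield, UV-ligand exchange: 100-fold diluted samples on streptavidin plates, 1 h at 37 °C; HRP anti-β2m 1 h at 37 °C; TMB read at 450 nm.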

Peptide Exchange (MHC class I binding score, peptide exchange yield)	Substance
“+++” (≥50 = +++)	19 (QVMEKLAAV; listed as Homo sapiens) [compound 19]
“++++” (≥75% = ++++)	199 (YLVELSSLL; listed as Homo sapiens) [compound 199]
“+++” (≥50 = +++)	252 (NLLDPGSSYLL; listed as Homo sapiens) [compound 252]
“++” (≥20% = ++)	123 (LLLAEAELLTL; listed as Homo sapiens) [compound 123]
“++++” (≥75% = ++++)	229 (FLLNLQNCHL; listed as Homo sapiens) [compound 229]
“+++” (≥50 = +++)	310 (LLSTLHLLV; listed as Homo sapiens) [compound 310]
“+++” (≥50 = +++)	78 (GLPSFLTEV; listed as Homo sapiens) [compound 78]
“+++” (≥50 = +++)	299 (ILEENIPVL; listed as Homo sapiens) [compound 299]
“++” (≥20% = ++)	356 (FLHDHQAEL; listed as Homo sapiens) [compound 356]
“+++” (≥50 = +++)	255 (YLFEEAISM; listed as Homo sapiens) [compound 255]
“+” (≥10% = +)	196 (YLLLQTYVL; listed as Homo sapiens) [compound 196]
“+++” (≥50 = +++)	259 (RLLDEQFAVL; listed as Homo sapiens) [compound 259]
“+++” (≥50 = +++)	151 (SLFDSAYGA; listed as Homo sapiens) [compound 151]
“+++” (≥50 = +++)	140 (QIAELPATSV; listed as Homo sapiens) [compound 140]
“+++” (≥50 = +++)	18 (LLGEFSIKM; listed as Homo sapiens) [compound 18]
“+++” (≥50 = +++)	76 (GLLRIIPYL; listed as Homo sapiens) [compound 76]
“+++” (≥50 = +++)	334 (YLLEEKIASL; listed as Homo sapiens) [compound 334]
“+++” (≥50 = +++)	63 (SLAHVAGCEL; listed as Homo sapiens) [compound 63]
“+++” (≥50 = +++)	125 (LLLEIGEVGKLFV; listed as Homo sapiens) [compound 125]
“+++” (≥50 = +++)	184 (VLSHNLYTV; listed as Homo sapiens) [compound 184]
“+++” (≥50 = +++)	128 (LLSEEEYHL; listed as Homo sapiens) [compound 128]
“+++” (≥50 = +++)	317 (NLLAHIWAL; listed as Homo sapiens) [compound 317]
“+++” (≥50 = +++)	354 (FIMDDPAGNSYL; listed as Homo sapiens) [compound 354]
“+++” (≥50 = +++)	312 (LLYNSTDPTL; listed as Homo sapiens) [compound 312]
“+++” (≥50 = +++)	92 (ILEPLNPLL; listed as Homo sapiens) [compound 92]

Peptide Exchange (MHC class I binding score, peptide exchange yield)	Substance
“+++” (≥50 = +++)	175 (FTVPRVVAV; listed as Homo sapiens) [compound 175]
“+++” (≥50 = +++)	244 (ILQALAVHL; listed as Homo sapiens) [compound 244]
“+++” (≥50 = +++)	274 (VLLEYHIAYL; listed as Homo sapiens) [compound 274]
“+++” (≥50 = +++)	214 (RLQELTEKL; listed as Homo sapiens) [compound 214]
“+++” (≥50 = +++)	250 (LLVQEPDGLMV; listed as Homo sapiens) [compound 250]
“+++” (≥50 = +++)	203 (ALLSSQLAL; listed as Homo sapiens) [compound 203]
“+++” (≥50 = +++)	59 (FVFGDENGTVSL; listed as Homo sapiens) [compound 59]
“+++” (≥50 = +++)	155 (SLMLEVPAL; listed as Homo sapiens) [compound 155]
“+++” (≥50 = +++)	31 (ELMHGVAGV; listed as Homo sapiens) [compound 31]
“+++” (≥50 = +++)	347 (YLGPVSPSL; listed as Homo sapiens) [compound 347]
“+++” (≥50 = +++)	117 (LLILENILL; listed as Homo sapiens) [compound 117]
“+++” (≥50 = +++)	30 (ELLEGSEIYL; listed as Homo sapiens) [compound 30]
“+++” (≥50 = +++)	208 (ILLKTEGINL; listed as Homo sapiens) [compound 208]
“+++” (≥50 = +++)	150 (SLFDQPLSII; listed as Homo sapiens) [compound 150]
“+++” (≥50 = +++)	164 (SVHKGFAFV; listed as Homo sapiens) [compound 164]
“++” (≥20% = ++)	180 (LLKDGPEIGL; listed as Homo sapiens) [compound 180]
“+++” (≥50 = +++)	301 (AASPIITLV; listed as Homo sapiens) [compound 301]
“++++” (≥75% = ++++)	37 (FIMEGGAMVL; listed as Homo sapiens) [compound 37]
“+++” (≥50 = +++)	309 (ILYGTQFVL; listed as Homo sapiens) [compound 309]
“+++” (≥50 = +++)	363 (ITTEVVNELYV; listed as Homo sapiens) [compound 363]
“++” (≥20% = ++)	269 (TLTDEQFLV; listed as Homo sapiens) [compound 269]
“+++” (≥50 = +++)	181 (VLLSIPFVSV; listed as Homo sapiens) [compound 181]
“++” (≥20% = ++)	25 (ATYSGLESQSV; listed as Homo sapiens) [compound 25]
“+++” (≥50 = +++)	265 (TLLADDLEIKL; listed as Homo sapiens) [compound 265]
“+++” (≥50 = +++)	225 (ILQERELLPV; listed as Homo sapiens) [compound 225]
